# Results taken from the supplement of paper PMC10065799, “High-throughput profiling of sequence recognition by tyrosine kinases and SH2 domains using bacterial peptide display” (eLife, 2023).
# Target: Fyn (UniProt P06241)
# Test: phosphorylation enrichment, bacterial display (enrichment ratio); higher = better substrate or ligand; peptides without Tyr show the background
# 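Also: 11-residue human phosphosite peptides and single-mutation variants displayed on the E. coli surface, counted by deep sequencing, each peptide's frequency after selection divided by its frequency in the unselected input library; frequency after pTyr selection over input frequency; kinase dosed for 20-30% of maximal phosphorylation in three min.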
# Fyn, sequence (P06241 whole entry, looked up): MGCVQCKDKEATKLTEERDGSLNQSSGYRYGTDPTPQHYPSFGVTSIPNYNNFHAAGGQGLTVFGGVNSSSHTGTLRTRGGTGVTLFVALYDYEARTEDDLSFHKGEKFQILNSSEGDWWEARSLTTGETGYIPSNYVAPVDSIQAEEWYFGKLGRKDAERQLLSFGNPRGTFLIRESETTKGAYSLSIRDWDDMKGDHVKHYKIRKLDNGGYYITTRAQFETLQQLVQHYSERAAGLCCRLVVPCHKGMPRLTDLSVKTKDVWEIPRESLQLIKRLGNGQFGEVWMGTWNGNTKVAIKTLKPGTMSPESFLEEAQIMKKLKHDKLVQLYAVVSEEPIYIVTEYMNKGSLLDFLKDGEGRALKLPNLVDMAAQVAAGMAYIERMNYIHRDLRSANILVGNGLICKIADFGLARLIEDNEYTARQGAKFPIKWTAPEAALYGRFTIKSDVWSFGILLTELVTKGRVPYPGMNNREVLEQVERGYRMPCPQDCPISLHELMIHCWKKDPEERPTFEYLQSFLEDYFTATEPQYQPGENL
row,Sequence,phosphorylation enrichment
1,FRQLQYCPSVE [CTNND2_Y508_YF],0.501
2,AEMKRYAESSS [RAI14_Y869],0.471
3,EPYEVYRIVPE [IRF8_Y110_K108E],6.69
4,RLLVVYPWTRR [HBB_Y36_Q40R],0.523
5,TAPFNYSFIFK [RAB14_Y8_YF],0.493
6,PYVYYYSYLLK [PTEN_Y178_R173P],1.88
7,LPHVIYCRLWR [SMAD2_Y128],1.66
8,SSDKVCAHQMV [MLH1_Y379_Y379C],0.388
9,TYGVAYRAKDK [CDK11B_Y453_V452A],0.812
10,GDPVQYNRTTD [MLPH_Y454],0.412
11,REGAKYVSHSA [ASS1_Y113_G117S],0.454
12,SIKGKYVTALY [KCNH2_Y611_D609G],0.432
13,VFSTDCFRVGG [NTRK2_Y706_Y706C_YF],0.945
14,QDKDLYPCPGT [RLF_Y671_R668K],0.652
15,QLYGAYLRIHA [BSCL2_Y213],7.21
16,TKFRNYLIPNG [CYP2C8_Y379_K383N],0.553
17,SETDDYAEIID [PTK2_Y397],0.573

row,Sequence,phosphorylation enrichment
1,IRTIDYRFTVC [IDS_Y497_W502C_YF],0.444
2,EAIMTYVSSFF [ACTN4_Y260_K255E_YF],0.778
3,EAEPYYCSLRD [NPHS1_Y1139_R1140C],3.37
4,SVVVPDEPPEV [TP53_Y220_Y220D],0.582
5,SLHPGYNFRYA [P2RX7_Y291_Y288H],0.424
6,FGSSSSGGAGG [RPA2_Y14_Y14S_YF],0.419
7,EREYKYGAHKY [OAT_Y50_N54K],0.369
8,DDERGYRRVRS [GIGYF2_Y268],0.366
9,AGRTGYDNREI [BCL2_Y9],0.427
10,NFRTTCVNANE [KCNH2_Y475_Y475C],0.53
11,KKFPDYIQIAM [SGMS2_Y59_YF],0.468
12,QISQDYGVLLE [PRDX3_Y172_R170Q],0.828
13,RALCHYFKLNI [ETV6_Y401_R399C_YF],0.54
14,HSFNSYTFPRL [PAK5_Y316_YF],0.407
15,SFCFRYRCAAQ [SUMF1_Y344_R349Q_YF],0.411
16,SYTDPYAQPSL [KMT2D_Y2378_P2382S],0.611

# System: Fer (mouse)
# Test: as above
row,Sequence,phosphorylation enrichment
1,FRQLQYCPSVE [CTNND2_Y508_YF],0.514
2,AEMKRYAESSS [RAI14_Y869],0.372
3,EPYEVYRIVPE [IRF8_Y110_K108E],8.85
4,RLLVVYPWTRR [HBB_Y36_Q40R],0.407
5,TAPFNYSFIFK [RAB14_Y8_YF],0.376
6,PYVYYYSYLLK [PTEN_Y178_R173P],1.1
7,LPHVIYCRLWR [SMAD2_Y128],0.434
8,SSDKVCAHQMV [MLH1_Y379_Y379C],0.356
9,TYGVAYRAKDK [CDK11B_Y453_V452A],0.38
10,GDPVQYNRTTD [MLPH_Y454],0.435
11,REGAKYVSHSA [ASS1_Y113_G117S],0.504
12,SIKGKYVTALY [KCNH2_Y611_D609G],0.329
13,VFSTDCFRVGG [NTRK2_Y706_Y706C_YF],0.761
14,QDKDLYPCPGT [RLF_Y671_R668K],0.562
15,QLYGAYLRIHA [BSCL2_Y213],0.536
16,TKFRNYLIPNG [CYP2C8_Y379_K383N],0.394
17,SETDDYAEIID [PTK2_Y397],0.688

row,Sequence,phosphorylation enrichment
1,IRTIDYRFTVC [IDS_Y497_W502C_YF],0.518
2,EAIMTYVSSFF [ACTN4_Y260_K255E_YF],0.468
3,EAEPYYCSLRD [NPHS1_Y1139_R1140C],1.85
4,SVVVPDEPPEV [TP53_Y220_Y220D],0.647
5,SLHPGYNFRYA [P2RX7_Y291_Y288H],0.442
6,FGSSSSGGAGG [RPA2_Y14_Y14S_YF],0.417
7,EREYKYGAHKY [OAT_Y50_N54K],0.398
8,DDERGYRRVRS [GIGYF2_Y268],0.406
9,AGRTGYDNREI [BCL2_Y9],0.5
10,NFRTTCVNANE [KCNH2_Y475_Y475C],0.464
11,KKFPDYIQIAM [SGMS2_Y59_YF],0.427
12,QISQDYGVLLE [PRDX3_Y172_R170Q],0.673
13,RALCHYFKLNI [ETV6_Y401_R399C_YF],0.719
14,HSFNSYTFPRL [PAK5_Y316_YF],0.489
15,SFCFRYRCAAQ [SUMF1_Y344_R349Q_YF],0.402
16,SYTDPYAQPSL [KMT2D_Y2378_P2382S],0.479

# Target: FGFR1 (UniProt P11362)
# Sequence (P11362 whole entry, looked up): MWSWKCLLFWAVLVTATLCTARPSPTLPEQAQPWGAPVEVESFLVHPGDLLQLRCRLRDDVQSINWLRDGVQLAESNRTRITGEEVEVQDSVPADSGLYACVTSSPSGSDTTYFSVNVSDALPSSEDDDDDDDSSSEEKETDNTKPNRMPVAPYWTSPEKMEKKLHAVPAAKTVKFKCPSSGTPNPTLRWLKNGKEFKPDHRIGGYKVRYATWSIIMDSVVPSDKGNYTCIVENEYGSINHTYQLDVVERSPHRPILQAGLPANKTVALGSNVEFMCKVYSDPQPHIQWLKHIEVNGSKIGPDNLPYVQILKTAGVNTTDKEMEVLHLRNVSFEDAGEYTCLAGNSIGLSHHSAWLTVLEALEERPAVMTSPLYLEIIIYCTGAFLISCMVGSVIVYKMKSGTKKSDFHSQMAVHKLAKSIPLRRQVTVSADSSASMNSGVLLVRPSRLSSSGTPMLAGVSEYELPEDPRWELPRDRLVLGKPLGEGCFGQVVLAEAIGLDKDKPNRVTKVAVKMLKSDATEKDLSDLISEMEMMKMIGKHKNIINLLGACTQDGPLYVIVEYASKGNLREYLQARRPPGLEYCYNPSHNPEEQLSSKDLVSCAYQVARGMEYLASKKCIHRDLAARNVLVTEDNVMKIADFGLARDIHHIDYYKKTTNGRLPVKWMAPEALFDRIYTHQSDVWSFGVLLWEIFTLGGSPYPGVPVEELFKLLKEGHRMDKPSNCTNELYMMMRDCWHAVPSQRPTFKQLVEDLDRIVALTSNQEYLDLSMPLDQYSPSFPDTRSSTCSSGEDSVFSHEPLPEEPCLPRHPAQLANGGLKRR
# Test: as above
row,Sequence,phosphorylation enrichment
1,FRQLQYCPSVE [CTNND2_Y508_YF],0.525
2,AEMKRYAESSS [RAI14_Y869],0.467
3,EPYEVYRIVPE [IRF8_Y110_K108E],4.53
4,RLLVVYPWTRR [HBB_Y36_Q40R],0.567
5,TAPFNYSFIFK [RAB14_Y8_YF],0.405
6,PYVYYYSYLLK [PTEN_Y178_R173P],6.02
7,LPHVIYCRLWR [SMAD2_Y128],0.414
8,SSDKVCAHQMV [MLH1_Y379_Y379C],0.397
9,TYGVAYRAKDK [CDK11B_Y453_V452A],0.791
10,GDPVQYNRTTD [MLPH_Y454],0.465
11,REGAKYVSHSA [ASS1_Y113_G117S],0.473
12,SIKGKYVTALY [KCNH2_Y611_D609G],0.367
13,VFSTDCFRVGG [NTRK2_Y706_Y706C_YF],0.565
14,QDKDLYPCPGT [RLF_Y671_R668K],0.744
15,QLYGAYLRIHA [BSCL2_Y213],1.02
16,TKFRNYLIPNG [CYP2C8_Y379_K383N],0.458
17,SETDDYAEIID [PTK2_Y397],0.748

row,Sequence,phosphorylation enrichment
1,IRTIDYRFTVC [IDS_Y497_W502C_YF],0.561
2,EAIMTYVSSFF [ACTN4_Y260_K255E_YF],0.501
3,EAEPYYCSLRD [NPHS1_Y1139_R1140C],1.34
4,SVVVPDEPPEV [TP53_Y220_Y220D],0.724
5,SLHPGYNFRYA [P2RX7_Y291_Y288H],0.431
6,FGSSSSGGAGG [RPA2_Y14_Y14S_YF],0.409
7,EREYKYGAHKY [OAT_Y50_N54K],0.414
8,DDERGYRRVRS [GIGYF2_Y268],0.386
9,AGRTGYDNREI [BCL2_Y9],0.461
10,NFRTTCVNANE [KCNH2_Y475_Y475C],0.528
11,KKFPDYIQIAM [SGMS2_Y59_YF],8.61
12,QISQDYGVLLE [PRDX3_Y172_R170Q],0.851
13,RALCHYFKLNI [ETV6_Y401_R399C_YF],0.783
14,HSFNSYTFPRL [PAK5_Y316_YF],0.59
15,SFCFRYRCAAQ [SUMF1_Y344_R349Q_YF],0.47
16,SYTDPYAQPSL [KMT2D_Y2378_P2382S],3.11

# Target: FGFR3 (UniProt P22607)
# Sequence (P22607 whole entry, looked up): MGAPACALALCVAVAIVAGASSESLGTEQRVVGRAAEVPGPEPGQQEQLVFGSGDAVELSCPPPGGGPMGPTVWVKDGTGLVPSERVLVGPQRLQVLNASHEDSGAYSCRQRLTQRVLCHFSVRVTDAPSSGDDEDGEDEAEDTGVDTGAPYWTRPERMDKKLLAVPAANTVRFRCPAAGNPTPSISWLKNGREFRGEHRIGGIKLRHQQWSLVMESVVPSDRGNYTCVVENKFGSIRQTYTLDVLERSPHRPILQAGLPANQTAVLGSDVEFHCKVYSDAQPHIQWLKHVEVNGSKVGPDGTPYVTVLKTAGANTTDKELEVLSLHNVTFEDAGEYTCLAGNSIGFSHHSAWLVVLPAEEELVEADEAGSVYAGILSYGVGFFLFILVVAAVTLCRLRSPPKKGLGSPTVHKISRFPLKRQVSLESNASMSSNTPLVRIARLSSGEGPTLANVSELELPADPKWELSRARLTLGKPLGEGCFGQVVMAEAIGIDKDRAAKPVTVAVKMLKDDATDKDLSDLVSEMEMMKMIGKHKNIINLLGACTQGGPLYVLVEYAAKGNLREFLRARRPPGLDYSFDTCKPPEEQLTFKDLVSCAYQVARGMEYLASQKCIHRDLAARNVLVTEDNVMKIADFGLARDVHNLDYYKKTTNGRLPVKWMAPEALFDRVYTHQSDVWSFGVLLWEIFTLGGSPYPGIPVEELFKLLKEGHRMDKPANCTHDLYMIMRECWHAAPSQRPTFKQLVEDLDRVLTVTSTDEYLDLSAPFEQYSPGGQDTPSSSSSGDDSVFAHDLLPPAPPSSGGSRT
# Test: as above
row,Sequence,phosphorylation enrichment
1,FRQLQYCPSVE [CTNND2_Y508_YF],0.861
2,AEMKRYAESSS [RAI14_Y869],0.441
3,EPYEVYRIVPE [IRF8_Y110_K108E],3.35
4,RLLVVYPWTRR [HBB_Y36_Q40R],0.823
5,TAPFNYSFIFK [RAB14_Y8_YF],0.771
6,PYVYYYSYLLK [PTEN_Y178_R173P],6.37
7,LPHVIYCRLWR [SMAD2_Y128],0.555
8,SSDKVCAHQMV [MLH1_Y379_Y379C],0.536
9,TYGVAYRAKDK [CDK11B_Y453_V452A],0.537
10,GDPVQYNRTTD [MLPH_Y454],0.7
11,REGAKYVSHSA [ASS1_Y113_G117S],0.854
12,SIKGKYVTALY [KCNH2_Y611_D609G],0.357
13,VFSTDCFRVGG [NTRK2_Y706_Y706C_YF],0.602
14,QDKDLYPCPGT [RLF_Y671_R668K],0.785
15,QLYGAYLRIHA [BSCL2_Y213],1.12
16,TKFRNYLIPNG [CYP2C8_Y379_K383N],0.502
17,SETDDYAEIID [PTK2_Y397],1.01

row,Sequence,phosphorylation enrichment
1,IRTIDYRFTVC [IDS_Y497_W502C_YF],0.832
2,EAIMTYVSSFF [ACTN4_Y260_K255E_YF],0.675
3,EAEPYYCSLRD [NPHS1_Y1139_R1140C],1.31
4,SVVVPDEPPEV [TP53_Y220_Y220D],0.687
5,SLHPGYNFRYA [P2RX7_Y291_Y288H],0.545
6,FGSSSSGGAGG [RPA2_Y14_Y14S_YF],0.455
7,EREYKYGAHKY [OAT_Y50_N54K],0.441
8,DDERGYRRVRS [GIGYF2_Y268],0.407
9,AGRTGYDNREI [BCL2_Y9],0.509
10,NFRTTCVNANE [KCNH2_Y475_Y475C],0.619
11,KKFPDYIQIAM [SGMS2_Y59_YF],5.17
12,QISQDYGVLLE [PRDX3_Y172_R170Q],0.792
13,RALCHYFKLNI [ETV6_Y401_R399C_YF],0.975
14,HSFNSYTFPRL [PAK5_Y316_YF],0.958
15,SFCFRYRCAAQ [SUMF1_Y344_R349Q_YF],0.463
16,SYTDPYAQPSL [KMT2D_Y2378_P2382S],1.89
